Here are results for 6 molecules from patent publication US20160152947A1 (BOARD OF REGENTS OF THE UNIVERSITY OF OKLAHOMA, published 2016).

Assay [1] concerns the target T1, MBP-Th-LGR4 LRR1-14 (MBP-Th-hLGR4.23-383-H6) (human, UniProt Q9BXB1 23-383).
T1 construct: range 23-383; Produced in E. coli; Labeled with amine-reactive terbium chelate in the TR-FRET assay; unlabeled in the AlphaLISA ternary complex assay; also called MBP-Th-LGR4 ECD; LGR4 ECD; not shown: thrombin cut site (Th) linker
Description: TR-FRET competition binding to LGR4 ECD. As for the experimental part: (§1) HEK293T cells transfected with TOPFLASH firefly luciferase reporter and Renilla luciferase control plasmids were treated with the indicated concentrations of MBP-Th-RSPO Fu1-Fu2 proteins in 1:6 diluted Wnt3a conditioned media. […] (C) AlphaLISA® luminescent proximity assay (BMG Labtech GmbH, Ortenberg, Germany) for ZNRF3 ECD binding. The indicated concentrations of MBP—Th-RSPO Fu1-Fu2 proteins were incubated with 3 nM Biotin-ZNRF3 ECD. Donor and acceptor beads were at 20 μg/ml each. Data shown for panels A-C are representative of at least three independent experiments, each performed in duplicate. The error bars represent the S.E.M. of the experiment. (D, E, F) Vertical scatter plots showing the pECso, Eₘₐₓ, and pK₁ values obtained from replicate independent signaling and LGR4 binding experiments as in panels A and B. The mean values and error bars representing the S.E.M. of the replicates are denoted.
(§2) The LGR4 ECD binding abilities of the newly purified MBP-Th-RSPO Fu1-Fu2-H₆ proteins were examined in an in vitro LanthaScreen®TR-FRET competition-binding assay (Thermo Fisher Scientific Inc., Rockford, Ill.).

Assay [2] concerns the target T1, MBP-Th-LGR4 LRR1-14 …. Description: TR-FRET competition binding; Tb-labeled MBP-Th-LGR4 LRR1-14, AF488-labeled MBP-Th-RSPO2 Fu1-Fu2 as tracer.
For assay [3], the target named is T1, MBP-Th-LGR4 LRR1-14 …. Description: TR-FRET competition binding; Tb-labeled MBP-Th-LGR4 LRR1-14 (20 nM), AF488-labeled MBP-Th-RSPO2 Fu1-Fu2 (125 nM) as tracer. On the procedure:
as §1, §2
A general note: Time-resolved FRET reads energy transfer from a long-lived donor to a nearby acceptor.

In assay [4] the target is T1, MBP-Th-LGR4 LRR1-14 …. Put plainly: AlphaLISA ternary complex control assay.

B1: MBP-Th-RSPO4 Fu1-Fu2-H6 (MBP-Th-RSPO4.21-138-H6), produced in E. coli (ligand)
chain: NRRKKQVGTGLGGNCTGCIICSEENGCSTCQQRLFLFIRREGIRQYGKCLHDCPPGYFGIRGQEVNRCKKCGATCESCFSQDFCIRCKRQFYLYKGKCLPTCPPGTLAHQNTRECQGEHHHHHH
notes: Bacterially produced; also called MBP-Th-RSPO4 (E. coli); pAP356; not shown: thrombin cut site (Th) linker
Consider B1, for which the “fold stronger affinity than RSPO2 and RSPO3” value in assay [1] was approximately 7 fold. Also, the pKI in assay [2] turned out to be 8.28; in assay [3] it was 8.12.

B2: commercial full-length RSPO4 produced in CHO cells (R&D Systems, catalog number 4575-RS-025/CF) (ligand, UniProt Q2I0M5 20-234, looked up)
chain: LNRRKKQVGTGLGGNCTGCIICSEENGCSTCQQRLFLFIRREGIRQYGKCLHDCPPGYFGIRGQEVNRCKKCGATCESCFSQDFCIRCKRQFYLYKGKCLPTCPPGTLAHQNTRECQGECELGPWGGWSPCTHNGKTCGSAWGLESRVREAGRAGHEEAATCQVLSESRKCPIQRPCPGERSPGQKKGRKDRRPRKDRKLDRRLDVRPRQPGLQP
notes: mature; Bought protein; also called R&D RSPO4 (CHO)
In the case of B2, in assay [2], the pKI turned out to be 8.23.

B3: MBP-Th-RSPO3 Fu1-Fu2-H6 (MBP-Th-RSPO3.22-146-H6) (ligand)
chain: QNASRGRRQRRMHPNVSQGCQGGCATCSDYNGCLSCKPRLFFALERIGMKQIGVCLSSCPSGYYGTRYPDINKCTKCKADCDTCFNKNFCTKCKSGFYLHLGKCLDNCPEGLEANNHTMECVSIVHHHHHH
notes: Produced in E. coli; also called pAP355; not shown: thrombin cut site (Th) linker
B3: the pKI in assay [3] was determined as 7.31.

B4: MBP-Th-RSPO1 Fu1-Fu2-H6 (ligand)
chain: SRGIKGKRQRRISAEGSQACAKGCELCSEVNGCLKCSPKLFILLERNDIRQVGVCLPSCPPGYFDARNPDMNKCIKCKIEHCEACFSHNFCTKCKEGLYLHKGRCYPACPEGSSAANGTMECSSPHHHHHH
notes: Produced in E. coli; also called MBP-Th-hRSPO1 Fu1-Fu2-H6; not shown: thrombin cut site (Th) linker
In assay [3], B4 displayed a pKI of 6.9.

B5: Biotin-ZNRF3 ECD (Avi tag-ZNRF3.56-216-H6, MBP removed by thrombin) (receptor, human)
chain: KETAFVEVVLFESSPSGDYTTYTTGLTGRFSRAGATLSAEGEIVQMHPLGLCNNNDEEDLYEYGWVGVVKLEQPELDPKPCLTVLGKAKRAVQRGATAVIFDVSENPEAIDQLNQGSEDPLKRPVVYVKGADAIKLMNIVNKQKVARARIQHRPPRQPTEYHHHHHH
modifications: biotin on the N-terminal Avi tag (site-specific in vivo biotinylation by BirA)
notes: range 56-216; Expressed in E. coli as MBP-Th-Avi tag-ZNRF3.56-216-H6; also called biotinylated ZNRF3 ECD; B-Z; not shown: Avi tag (and residues left after thrombin cleavage)
On to B5, for which, in assay [4], the binding result is given as “no binding (tested: 5 nM each)”.

B6: MBP-Th-RSPO2 Fu1-Fu2-H6 (MBP-Th-RSPO2.22-144-H6) (ligand)
chain: QGNRWRRSKRASYVSNPICKGCLSCSKDNGCSRCQQKLFFFLRREGMRQYGECLHSCPSGYYGHRAPDMNRCARCRIENCDSCFSKDFCTKCKVGFYLHRGRCFDECPDGFAPLEETMECVEGHHHHHH
notes: Produced in E. coli; also called pAC018; not shown: thrombin cut site (Th) linker
B6 gave a pKI in assay [3] of 7.26.
